From the supplement of paper PMC10065799, “High-throughput profiling of sequence recognition by tyrosine kinases and SH2 domains using bacterial peptide display” (eLife, 2023)
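Note: 11-residue human phosphosite peptides and single-mutation variants displayed on the E. coli surface, counted by deep sequencing, each peptide's frequency after selection divided by its frequency in the unselected input library; frequency after pTyr selection over input frequency; kinase dosed for 20-30% of maximal phosphorylation in three min.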

The sequences below were run on c-Src (assay: phosphorylation enrichment, bacterial display (enrichment ratio); higher = better substrate or ligand; peptides without Tyr show the background).
For QEGPEYWDQET [HLA-A_Y83], the phosphorylation enrichment was 0.825. With RSYSPCDYQPC [TNS1_Y796_Y796C] the phosphorylation enrichment was 1.56. In the case of DIDKIYVRTGI [PIK3CA_Y355], the phosphorylation enrichment is reported as 0.528. LVMFIDAIFGM [SCN1A_Y1684_Y1684D] was tested, and the phosphorylation enrichment was 0.91. ASGKYYAMKIL [AKT3_Y174] was tested, and the phosphorylation enrichment was 0.396. VNNTVYGIDAM [EIF3J_Y143_A141T] was tested, and the phosphorylation enrichment was 0.596. Work on LSSLAYSGKDA [FXN_Y205] yielded a phosphorylation enrichment of 0.47. FGISGYVVDSV [MAP2K3_Y214_L215V] showed a phosphorylation enrichment of 0.412. Sequence ENRKFYKDLKE [PURA_Y156_M157K_YF] has a phosphorylation enrichment of 0.422. In the case of HDRREYSRFEK [ITGB7_Y758_Y753H], the phosphorylation enrichment is reported as 0.53. Sequence SSVAGYACLAY [MVD_Y131_A128V] has a phosphorylation enrichment of 0.554. VRVQLYDPDFM [CYP4A22_Y100_Y104F] was tested, and the phosphorylation enrichment was 0.579. Sequence KDKLPYPYDDP [GPX2_Y125] has a phosphorylation enrichment of 0.486. Work on GLDSSYLLRDS [SH2D1A_Y29_G27S] yielded a phosphorylation enrichment of 0.386. In the case of KFVKMYDNHQL [MYO9A_Y203_YF], the phosphorylation enrichment is reported as 0.378. SSMNDYNPLEK [MYOC_Y479_I477N] showed a phosphorylation enrichment of 0.502. TDKLFYIFTSG [SLC27A4_Y243_YF] gave a phosphorylation enrichment of 0.469. With FGRTFYNQANM [MCCC2_Y196_I200N] the phosphorylation enrichment was 0.493. For VFGEEYEEQPR [ZMYM2_Y1033], the phosphorylation enrichment was 0.443. For SGPRHYTIAAL [TTR_Y125_R124H], the phosphorylation enrichment was 0.455. In the case of YRDMDYRSYPH [RBM10_Y41_R46H], the phosphorylation enrichment is reported as 0.376. RSGNCYLDIRP [FBN1_Y1535] showed a phosphorylation enrichment of 0.583. In the case of IHKEFYDGLFP [BCR_Y561], the phosphorylation enrichment is reported as 0.878. Work on KQFWRYFPGNL [SLC25A4_Y112_A114P] yielded a phosphorylation enrichment of 0.496. Work on KSSDVYVSFDF [SORL1_Y136_YF] yielded a phosphorylation enrichment of 4.3. With PKEQKYSFLQN [GH1_Y68] the phosphorylation enrichment was 0.554. Sequence ILCTVYAFKTR [GRM3_Y754] has a phosphorylation enrichment of 0.599. For PSALGYSPSLH [LLGL2_Y40_R45H], the phosphorylation enrichment was 0.631. In the case of PVQAPYQKVVA [HBB_Y131_A130P], the phosphorylation enrichment is reported as 0.563. For QGIIIYKAAFF [SLC25A4_Y187_R188K_YF], the phosphorylation enrichment was 0.917. In the case of GIVEDYRPPLY [ACVRL1_Y421_F425L], the phosphorylation enrichment is reported as 0.412. For LHNLFYQLEAE [PKP2_Y616_S615F], the phosphorylation enrichment was 10.4. In the case of DTKDDYNALSV [IL17RB_Y457], the phosphorylation enrichment is reported as 0.443.

The sequences below were run on Fer (mouse) in the same assay as above.
Work on QEGPEYWDQET [HLA-A_Y83] yielded a phosphorylation enrichment of 0.546. Work on RSYSPCDYQPC [TNS1_Y796_Y796C] yielded a phosphorylation enrichment of 0.544. DIDKIYVRTGI [PIK3CA_Y355] showed a phosphorylation enrichment of 0.525. For LVMFIDAIFGM [SCN1A_Y1684_Y1684D], the phosphorylation enrichment was 1.63. Sequence ASGKYYAMKIL [AKT3_Y174] has a phosphorylation enrichment of 0.434. VNNTVYGIDAM [EIF3J_Y143_A141T] gave a phosphorylation enrichment of 0.423. LSSLAYSGKDA [FXN_Y205] gave a phosphorylation enrichment of 0.615. With FGISGYVVDSV [MAP2K3_Y214_L215V] the phosphorylation enrichment was 0.421. ENRKFYKDLKE [PURA_Y156_M157K_YF] gave a phosphorylation enrichment of 0.387. Work on HDRREYSRFEK [ITGB7_Y758_Y753H] yielded a phosphorylation enrichment of 0.731. SSVAGYACLAY [MVD_Y131_A128V] gave a phosphorylation enrichment of 0.587. VRVQLYDPDFM [CYP4A22_Y100_Y104F] showed a phosphorylation enrichment of 0.579. With KDKLPYPYDDP [GPX2_Y125] the phosphorylation enrichment was 0.455. With GLDSSYLLRDS [SH2D1A_Y29_G27S] the phosphorylation enrichment was 0.305. KFVKMYDNHQL [MYO9A_Y203_YF] gave a phosphorylation enrichment of 0.458. SSMNDYNPLEK [MYOC_Y479_I477N] showed a phosphorylation enrichment of 0.397. In the case of TDKLFYIFTSG [SLC27A4_Y243_YF], the phosphorylation enrichment is reported as 0.472. Work on FGRTFYNQANM [MCCC2_Y196_I200N] yielded a phosphorylation enrichment of 0.51. VFGEEYEEQPR [ZMYM2_Y1033] showed a phosphorylation enrichment of 0.514. For SGPRHYTIAAL [TTR_Y125_R124H], the phosphorylation enrichment was 0.438. YRDMDYRSYPH [RBM10_Y41_R46H] gave a phosphorylation enrichment of 0.487. For RSGNCYLDIRP [FBN1_Y1535], the phosphorylation enrichment was 0.514. IHKEFYDGLFP [BCR_Y561] was tested, and the phosphorylation enrichment was 0.699. KQFWRYFPGNL [SLC25A4_Y112_A114P] was tested, and the phosphorylation enrichment was 0.469. In the case of KSSDVYVSFDF [SORL1_Y136_YF], the phosphorylation enrichment is reported as 4.79. With PKEQKYSFLQN [GH1_Y68] the phosphorylation enrichment was 0.627. For ILCTVYAFKTR [GRM3_Y754], the phosphorylation enrichment was 0.61. With PSALGYSPSLH [LLGL2_Y40_R45H] the phosphorylation enrichment was 0.444. PVQAPYQKVVA [HBB_Y131_A130P] was tested, and the phosphorylation enrichment was 0.381. QGIIIYKAAFF [SLC25A4_Y187_R188K_YF] was tested, and the phosphorylation enrichment was 0.721. For GIVEDYRPPLY [ACVRL1_Y421_F425L], the phosphorylation enrichment was 0.399. Work on LHNLFYQLEAE [PKP2_Y616_S615F] yielded a phosphorylation enrichment of 1.66. DTKDDYNALSV [IL17RB_Y457] gave a phosphorylation enrichment of 0.483.

Each sequence was assayed on AncSZ in the same assay as above.
In the case of QEGPEYWDQET [HLA-A_Y83], the phosphorylation enrichment is reported as 1.82. In the case of RSYSPCDYQPC [TNS1_Y796_Y796C], the phosphorylation enrichment is reported as 1.12. DIDKIYVRTGI [PIK3CA_Y355] showed a phosphorylation enrichment of 0.975. Work on LVMFIDAIFGM [SCN1A_Y1684_Y1684D] yielded a phosphorylation enrichment of 2.28. In the case of ASGKYYAMKIL [AKT3_Y174], the phosphorylation enrichment is reported as 0.664. VNNTVYGIDAM [EIF3J_Y143_A141T] showed a phosphorylation enrichment of 0.724. In the case of LSSLAYSGKDA [FXN_Y205], the phosphorylation enrichment is reported as 0.859. For FGISGYVVDSV [MAP2K3_Y214_L215V], the phosphorylation enrichment was 0.775. In the case of ENRKFYKDLKE [PURA_Y156_M157K_YF], the phosphorylation enrichment is reported as 0.532. HDRREYSRFEK [ITGB7_Y758_Y753H] was tested, and the phosphorylation enrichment was 0.743. Work on SSVAGYACLAY [MVD_Y131_A128V] yielded a phosphorylation enrichment of 0.898. Work on VRVQLYDPDFM [CYP4A22_Y100_Y104F] yielded a phosphorylation enrichment of 1.06. Sequence KDKLPYPYDDP [GPX2_Y125] has a phosphorylation enrichment of 1. In the case of GLDSSYLLRDS [SH2D1A_Y29_G27S], the phosphorylation enrichment is reported as 0.477. For KFVKMYDNHQL [MYO9A_Y203_YF], the phosphorylation enrichment was 0.586. Work on SSMNDYNPLEK [MYOC_Y479_I477N] yielded a phosphorylation enrichment of 0.797. Sequence TDKLFYIFTSG [SLC27A4_Y243_YF] has a phosphorylation enrichment of 1.6. FGRTFYNQANM [MCCC2_Y196_I200N] showed a phosphorylation enrichment of 0.939. VFGEEYEEQPR [ZMYM2_Y1033] was tested, and the phosphorylation enrichment was 1.39. SGPRHYTIAAL [TTR_Y125_R124H] gave a phosphorylation enrichment of 0.59. YRDMDYRSYPH [RBM10_Y41_R46H] showed a phosphorylation enrichment of 0.567. With RSGNCYLDIRP [FBN1_Y1535] the phosphorylation enrichment was 1.06. With IHKEFYDGLFP [BCR_Y561] the phosphorylation enrichment was 1.08. With KQFWRYFPGNL [SLC25A4_Y112_A114P] the phosphorylation enrichment was 0.904. In the case of KSSDVYVSFDF [SORL1_Y136_YF], the phosphorylation enrichment is reported as 1.21. With PKEQKYSFLQN [GH1_Y68] the phosphorylation enrichment was 0.972. Work on ILCTVYAFKTR [GRM3_Y754] yielded a phosphorylation enrichment of 1.52. With PSALGYSPSLH [LLGL2_Y40_R45H] the phosphorylation enrichment was 0.639. PVQAPYQKVVA [HBB_Y131_A130P] showed a phosphorylation enrichment of 0.744. Sequence QGIIIYKAAFF [SLC25A4_Y187_R188K_YF] has a phosphorylation enrichment of 1.5. GIVEDYRPPLY [ACVRL1_Y421_F425L] gave a phosphorylation enrichment of 0.727. LHNLFYQLEAE [PKP2_Y616_S615F] was tested, and the phosphorylation enrichment was 2.35. In the case of DTKDDYNALSV [IL17RB_Y457], the phosphorylation enrichment is reported as 1.08.

The sequences below were run against Fyn (UniProt P06241) in the same assay as above.
Sequence of Fyn (P06241 whole entry, looked up): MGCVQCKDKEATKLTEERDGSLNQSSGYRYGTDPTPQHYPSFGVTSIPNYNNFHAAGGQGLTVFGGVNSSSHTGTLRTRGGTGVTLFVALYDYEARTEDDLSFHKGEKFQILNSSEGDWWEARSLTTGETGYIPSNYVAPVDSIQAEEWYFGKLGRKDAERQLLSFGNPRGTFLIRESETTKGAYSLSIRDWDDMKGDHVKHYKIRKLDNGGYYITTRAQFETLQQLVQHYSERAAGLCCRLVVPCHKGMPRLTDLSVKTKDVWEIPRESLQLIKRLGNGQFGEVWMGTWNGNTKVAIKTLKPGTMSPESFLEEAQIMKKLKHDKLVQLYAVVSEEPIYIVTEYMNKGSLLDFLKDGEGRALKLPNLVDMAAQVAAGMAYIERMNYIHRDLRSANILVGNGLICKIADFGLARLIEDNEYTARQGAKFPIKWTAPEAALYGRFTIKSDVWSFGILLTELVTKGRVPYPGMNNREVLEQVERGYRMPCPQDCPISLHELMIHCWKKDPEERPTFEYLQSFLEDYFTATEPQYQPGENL
QEGPEYWDQET [HLA-A_Y83] gave a phosphorylation enrichment of 0.739. RSYSPCDYQPC [TNS1_Y796_Y796C] was tested, and the phosphorylation enrichment was 0.554. In the case of DIDKIYVRTGI [PIK3CA_Y355], the phosphorylation enrichment is reported as 0.458. Sequence LVMFIDAIFGM [SCN1A_Y1684_Y1684D] has a phosphorylation enrichment of 1.13. With ASGKYYAMKIL [AKT3_Y174] the phosphorylation enrichment was 0.446. VNNTVYGIDAM [EIF3J_Y143_A141T] showed a phosphorylation enrichment of 0.907. Work on LSSLAYSGKDA [FXN_Y205] yielded a phosphorylation enrichment of 0.809. Work on FGISGYVVDSV [MAP2K3_Y214_L215V] yielded a phosphorylation enrichment of 0.449. ENRKFYKDLKE [PURA_Y156_M157K_YF] showed a phosphorylation enrichment of 0.418. Work on HDRREYSRFEK [ITGB7_Y758_Y753H] yielded a phosphorylation enrichment of 0.317. For SSVAGYACLAY [MVD_Y131_A128V], the phosphorylation enrichment was 0.466. In the case of VRVQLYDPDFM [CYP4A22_Y100_Y104F], the phosphorylation enrichment is reported as 0.419. KDKLPYPYDDP [GPX2_Y125] gave a phosphorylation enrichment of 0.414. For GLDSSYLLRDS [SH2D1A_Y29_G27S], the phosphorylation enrichment was 0.386. Sequence KFVKMYDNHQL [MYO9A_Y203_YF] has a phosphorylation enrichment of 0.377. In the case of SSMNDYNPLEK [MYOC_Y479_I477N], the phosphorylation enrichment is reported as 0.4. TDKLFYIFTSG [SLC27A4_Y243_YF] showed a phosphorylation enrichment of 0.506. FGRTFYNQANM [MCCC2_Y196_I200N] was tested, and the phosphorylation enrichment was 0.377. In the case of VFGEEYEEQPR [ZMYM2_Y1033], the phosphorylation enrichment is reported as 0.534. SGPRHYTIAAL [TTR_Y125_R124H] showed a phosphorylation enrichment of 0.455. YRDMDYRSYPH [RBM10_Y41_R46H] gave a phosphorylation enrichment of 0.412. With RSGNCYLDIRP [FBN1_Y1535] the phosphorylation enrichment was 0.567. For IHKEFYDGLFP [BCR_Y561], the phosphorylation enrichment was 0.57. KQFWRYFPGNL [SLC25A4_Y112_A114P] gave a phosphorylation enrichment of 0.35. KSSDVYVSFDF [SORL1_Y136_YF] gave a phosphorylation enrichment of 5.77. In the case of PKEQKYSFLQN [GH1_Y68], the phosphorylation enrichment is reported as 0.692. With ILCTVYAFKTR [GRM3_Y754] the phosphorylation enrichment was 0.528. With PSALGYSPSLH [LLGL2_Y40_R45H] the phosphorylation enrichment was 0.458. With PVQAPYQKVVA [HBB_Y131_A130P] the phosphorylation enrichment was 0.539. Work on QGIIIYKAAFF [SLC25A4_Y187_R188K_YF] yielded a phosphorylation enrichment of 0.569. For GIVEDYRPPLY [ACVRL1_Y421_F425L], the phosphorylation enrichment was 0.455. With LHNLFYQLEAE [PKP2_Y616_S615F] the phosphorylation enrichment was 8.59. For DTKDDYNALSV [IL17RB_Y457], the phosphorylation enrichment was 0.599.
